US20260209365A1, “ANTI-COMMON GAMMA CHAIN PROTEINS AND COMPOSITIONS OF MATTER” (SINOMAB BIOSCIENCE LIMITED, priority 2023, published 2026)

Tests used:
Ramos B cells = assay: WST-8 proliferation assay, IL-4/IL-21 rescue of anti-IgM induced cell death; format: cell-based, human; settings: humanized antibodies; 33 nM (5 μg/ml); vs ritlecitinib
Method: The effects of anti-γc antibodies in blocking IL-4 and IL-21 rescues of Ramos cell death after anti-IgM induced hyperactivation were investigated by WST-8 proliferation assay. In brief, Ramos cells (50000 cells in 100 l) were seeded into 96-well plate and stabilized at 37° C. for an hour. Cells were pretreated in anti-γc antibodies or ritlecitinib for an hour, followed by incubation of IL-4 (10 ng/ml) or IL-21 (10 ng/ml) and anti-IgM (2 ug/ml, #109-006-129, Jackson ImmunoResearch). Aft er 48 hours, 10 μl WST-8 reagent (ab228554, Abcam) was added to each well and incubated for 4 hours.
WST-8 could be reduced by cellular dehydrogenases to an orange formazan product, which the amount of formazan produced is directly proportional to the number of living Ramos cells. Optical density (OD) of each well was measured by absorbance at 450 nm using Varioskan LUX Multimode Microplate Reader (ThermoFisher Scientific).

[1] = Structural stability by SEC-HPLC; format: physicochemical; settings: for purity by SEC-HPLC after incubation: 12 days after PBS exchange at RT and 37° C.
Method: Next, structural stabilities of hSM-05A and hSM-05E were studied by incubation at either room temperature or 37° C. for around 2 weeks. SEC-HPLC was utilized to measure aggregates and degradation of antibodies. […] No degradation of the antibodies was observed aft er 2 weeks.

HaCaT cells [2] = assay: ADCC assay on HaCaT cells with human PBMC; format: cell-based; settings: 33 nM (5 μg/ml), vs isotype antibody
Method: (§1) γc expressing human keratinocyte HaCaT cell line was utilized as the target cells in ADCC and CDC assays. To determine the ADCC activity, HaCaT cell was pre-binded with anti-γc antibodies before co-culture with human PBMC. To determine the CDC activity, HaCaT cell was pre-binded with anti-γc antibodies before incubation with low-endotoxin complement proteins extracted from guinea pig. ADCC was determined by percentage of PI+ HaCaT cells in flow cytometry analysis while CDC was measured by the WST-8 proliferative assay of HaCaT cells in a 96-well plate (FIG. 22A).

HaCaT cells [3] = assay: CDC assay on HaCaT cells with complement; format: cell-based, human; settings: 33 nM (5 μg/ml), vs isotype antibody
Method: as §1

IL-15 induced p-STAT5 = assay: Suppression of p-STAT in PBMC, IL-15; format: cell-based, human; settings: antibody 10 μg/ml, compared to isotype control
Method: (§2) Given numbers refer to the percentage of inhibition compared to isotype control stimulated with respective γc cytokine. Antibody concentration is 10 μg/ml.

[4] = tested on: granzyme and IFNγ secretion; assay: Secretion of granzymes and IFNγ from PBMC culture, ELISA; format: cell-based, human; settings: IL-2 or IL-15, 33 nM, humanized antibodies
Method: Activation of T and NK cells in the PBMC culture could be studied by granzyme and IFNγ secretion [Carlin et al., Blood., 2005; 106 (12): 3874-9; Grossman et al., Blood., 2004; 104 (9): 2840-8; Keppel et al., J Immunol., 2015; 194 (4): 1954-1962; Tamang et al., Cytokine., 2006; 36 (3-4): 148-59]. Similar results are obtained in-house that IL-2 and IL-15 but not IL-21 could trigger secretion of granzyme A and IFNγ in PBMC culture (FIG. 15A-B).
Antibodies or ritlecitinib were added into the PBMC culture to investigate their inhibitory effects in the presence of IL-2 or IL-15 treatment.
Releases of cytolytic agents from PBMC culture were further evaluated by ELISA assays.

human γc protein = target: T1, human γc protein (Homo sapiens, UniProt P31785); assay: Competition assay on Ramos B cells, flow cytometry; format: binding; settings: unconjugated hSM-05A then FITC-conjugated hSM-05E, 33 nM
T1 construct: endogenous in cells; host or cells: Ramos B cells
T1 sequence (P31785 23-369): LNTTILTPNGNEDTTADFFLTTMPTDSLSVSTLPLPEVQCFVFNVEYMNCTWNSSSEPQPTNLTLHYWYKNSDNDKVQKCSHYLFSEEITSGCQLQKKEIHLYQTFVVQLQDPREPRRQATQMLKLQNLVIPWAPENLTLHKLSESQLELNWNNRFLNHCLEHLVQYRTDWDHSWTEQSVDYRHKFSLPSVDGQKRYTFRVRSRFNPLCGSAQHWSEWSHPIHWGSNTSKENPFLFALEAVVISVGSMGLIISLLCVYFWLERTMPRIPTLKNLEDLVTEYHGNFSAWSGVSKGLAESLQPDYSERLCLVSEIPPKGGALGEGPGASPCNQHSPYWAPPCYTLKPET
Method: Purified anti-γc antibodies were conjugated to FITC fluorescent dye and used for the competition assay. In brief, human γc expressing Ramos B cells were first labelled with unconjugated hSM-05A for an hour before further incubation with FITC-conjugated hSM-05E.

IL-21 induced p-STAT3 = assay: Suppression of p-STAT in PBMC, IL-21; format: cell-based, human; settings: antibody 10 μg/ml, compared to isotype control
Method: as §2

IL-2 induced p-STAT3 = assay: Suppression of p-STAT in PBMC, IL-2; format: cell-based, human; settings: antibody 10 μg/ml, compared to isotype control
Method: as §2

human γc proteins = target: T2, human γc proteins (Homo sapiens, UniProt P31785); assay: BLI binding kinetics to human γc protein
T2 construct: extracellular domain of human γc protein (amino acids: 1-262); host or cells: Expi-CHO (e.g.)
T2 sequence (P31785 23-262): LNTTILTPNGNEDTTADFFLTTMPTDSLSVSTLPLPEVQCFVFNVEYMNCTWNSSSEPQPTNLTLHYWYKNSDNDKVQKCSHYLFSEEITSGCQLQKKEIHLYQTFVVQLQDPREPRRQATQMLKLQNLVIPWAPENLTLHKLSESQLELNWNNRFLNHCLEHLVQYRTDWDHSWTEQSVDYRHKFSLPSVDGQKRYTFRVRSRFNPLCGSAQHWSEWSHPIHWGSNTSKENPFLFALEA
Method: (§3) Full-length humanized antibodies were evaluated by BLI to access their binding kinetics. The binding activities of full-length anti-γc antibody were investigated using γc proteins (extracellular domain) from human and common marmoset (either purchased or in-house generated). Briefly, anti-γc antibody (20 μg/mL) was immobilized on biosensors via interactions with anti-human IgG; serially diluted γc proteins (at a concentration of 158.7 nM, 79.4 Nm, 39.7n M and 0 nM respectively) were subsequently added following standard operation protocols of the Octet ReD96 system to plot out the association and dissociation curve. Irrelevant antibody (SM03, anti-human CD22 chimeric IgG1 antibody, SinoMab BioScience Limited) was used as the control reference. The KD is within the picomolar-single digit nanomolar range.

common marmoset γc = assay: BLI binding kinetics to common marmoset γc protein; set-up: species or system common marmoset (Callithrix jacchus)
Method: as §3

[5] = room temperature or 37° C. for around 2 weeks

Sequence of common marmoset γc (as listed by the source): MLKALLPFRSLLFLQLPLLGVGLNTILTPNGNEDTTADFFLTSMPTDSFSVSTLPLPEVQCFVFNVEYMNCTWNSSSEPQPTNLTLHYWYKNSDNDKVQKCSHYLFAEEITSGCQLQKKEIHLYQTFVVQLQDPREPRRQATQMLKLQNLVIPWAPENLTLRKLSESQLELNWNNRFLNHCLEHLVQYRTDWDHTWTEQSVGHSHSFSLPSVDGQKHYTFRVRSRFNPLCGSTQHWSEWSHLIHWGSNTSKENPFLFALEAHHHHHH

Ka (human γc proteins; Experiment 1)	Kdis (human γc proteins; Experiment 1)	Ka (human γc proteins; Experiment 2)	Kdis (human γc proteins; Experiment 2)	Ka (common marmoset γc)	Kdis (common marmoset γc)	Molecule	restimulation of anti-IgM induced cell death in presence of IL-4 or IL-21 (WST-8) (Ramos B cells)	purity by SEC-HPLC after incubation [1]	aggregation state after incubation [1, 5]	ADCC activity (HaCaT cells [2])	CDC activity (HaCaT cells [3])	IL-15 induced p-STAT5, percentage of inhibition (IL-15 induced p-STAT5)	inhibition of IFNγ secretion [4]	epitope competition between hSM-05A and hSM-05E (human γc protein)	IL-21 induced p-STAT3, percentage of inhibition (IL-21 induced p-STAT3)	IL-2 induced p-STAT3, percentage of inhibition (IL-2 induced p-STAT3)	fraction forming aggregates [1, 5]	suppression of granzyme B secretion [4]
119000 M⁻¹ s⁻¹	0.000319 s⁻¹	175000 M⁻¹ s⁻¹	0.00144 s⁻¹	300000 M⁻¹ s⁻¹	0.00121 s⁻¹	hSM-05A: full-length humanized anti-γc antibody derived from SM-05A by framework patching (antibody, V domains shown) VH: QVQLVQSGAEVLKPGASVKVSCKASGYTFTEYTMHWVKQARGQRLEWIGGIDPYNGGATYNQRFKGKATLTTDTSTSTAYMELRNLRSDDTAVYYCARRRLYYGNALDYWGQGTLVTVSS VL: DIVMTQSPLSLPVTPGEQASISCRSSQSLVHSNGNTYLHWYLQKPGQSPQLLIYKVSSRFSGVPDRFSGSGSGTDFTLKISRVEAEDVGVYFCSQTTHVPFTFGSGTKLEIKR	can restimulate anti-IgM induced cell death in a comparable level to ritlecitinib	around 99.9%	remained as single molecule	could not induce any ADCC nor CDC activities	could not induce any ADCC nor CDC activities	100%	comparable inhibition to IFNγ secretion to ritlecitinib	could compete on a similar epitope on the human γc protein	82.80%	89.94%	–	–
119000 M⁻¹ s⁻¹	0.000573 s⁻¹	327000 M⁻¹ s⁻¹	0.000944 s⁻¹	333000 M⁻¹ s⁻¹	0.00175 s⁻¹	hSM-05E: full-length humanized anti-γc antibody derived from SM-05E by framework patching (antibody, V domains shown) VH: QVQLVQSGAEVLKPGASVKVSCKASGYTFTEYTMHWVKQARGQRLEWIGGIDPNTGGVTYNQKFKGKATLTTDTSTSTAYMELRNLRSDDTAVYYCARRRRYYGYALDYWGQGTLVTVSS VL: DIVMTQSPLSLPVTPGEQASISCRSSQSIVHSNGNTYLEWYLQKPGQSPQLLIYKVSNRFSGVPDRFSGSGSGTDFTLKISRVEAEDVGVYFCSQSTHVPFMFGSGTKLEIKR	can restimulate anti-IgM induced cell death in a comparable level to ritlecitinib	around 80%	–	could not induce any ADCC nor CDC activities	could not induce any ADCC nor CDC activities	100%	only offered weak suppression to two agents	could compete on a similar epitope on the human γc protein	100%	58.45%	around 20%	only offered weak suppression to two agents
